Assay results reported in patent US20260055383.

Experiments:
Assay in all cases: cell_activity
[1] = system: B2M right 18 bp TAL-ssSPB (synthetic construct); details: paired with left 14 bp; replicate 7.49
[2] = system: B2M right 19 bp TAL-ssSPB (synthetic construct); details: paired with left 14 bp; replicate 6.05
[3] = system: B2M right 17 bp TAL-ssSPB (13 bp spacing) (synthetic construct); details: paired with left 14 bp; replicate 4.52
[4] = system: B2M right 17 bp TAL-ssSPB (14 bp spacing) (synthetic construct); details: paired with left 14 bp; replicate 5.14
[5] = system: B2M right 9 bp TAL-ssSPB (synthetic construct); details: paired with left 10 bp; replicate 5.72
[6] = system: PBx (excision-only piggyBac transposase) (synthetic construct); details: HEK293T, LINE1 integration 0
[7] = system: B2M right 15 bp TAL-ssSPB (synthetic construct); details: paired with left 14 bp; replicate 4.79
[8] = system: B2M right 11 bp TAL-ssSPB (synthetic construct); details: paired with left 14 bp; replicate 8.87
[9] = system: B2M right 20 bp TAL-ssSPB (synthetic construct); details: paired with left 14 bp; replicate 5.61
[10] = system: B2M right 16 bp TAL-ssSPB (13 bp spacing) (synthetic construct); details: paired with left 14 bp; replicate 7.18
[11] = system: B2M left 13 bp TAL-ssSPB (synthetic construct); details: paired with right 12 bp; replicate 8.38
[12] = system: B2M right 12 bp TAL-ssSPB (synthetic construct); details: paired with left 14 bp; replicate 7.46
[13] = system: B2M right 16 bp TAL-ssSPB (14 bp spacing) (synthetic construct); details: paired with left 14 bp; replicate 7.76
[14] = system: B2M left 9 bp TAL-ssSPB (synthetic construct); details: paired with right 10 bp; replicate 4.54
[15] = system: B2M left 14 bp TAL-ssSPB (synthetic construct); details: paired with right 11 bp; replicate 8.87
[16] = system: B2M right 10 bp TAL-ssSPB (synthetic construct); details: paired with left 9 bp; replicate 4.54
[17] = system: LINE1 R2.2 TAL-ssSPB K500R K500R (synthetic construct); details: excision 33.92
[18] = system: LINE1 R2.2 TAL-ssSPB M226F M226F (synthetic construct); details: excision 45.14
[19] = system: LINE1 R2.2 TAL-ssSPB S301A S301A (synthetic construct); details: excision 39.72
[20] = system: TAL-ssSPB off-target (not specific for LINE1) (synthetic construct); details: off-target control; excision 34.56
[21] = system: B2M left 10 bp TAL-ssSPB (synthetic construct); details: paired with right 12 bp; replicate 5.48

Sequence: TTTGCATCTGAGCTTCTAA (double strand) [B2M right 18 bp target]
- activity (% B2M alleles edited) [1]: 5.76

Sequence: TCTTTGCATCTGAGCTTCTA (double strand) [B2M right 19 bp target]
- activity (% B2M alleles edited) [2]: 5.45

Sequence: TTGCATCTGAGCTTCTAA (double strand) [B2M right 17 bp target, 13 bp spacing]
- activity (% B2M alleles edited) [3]: 5.66

Sequence: TTTGCATCTGAGCTTCTA (double strand) [B2M right 17 bp target, 14 bp spacing]
- activity (% B2M alleles edited) [4]: 4.96

Sequence: TGAGCTTCTA (double strand) [B2M right 9 bp target]
- activity (% B2M alleles edited) [5]: 5.73

Sequence: CCCTAGAAAGATAGTCTGCGTAAAATTGACGCATG (double strand) [Symmetrical ITR 0 bp]
- activity (% GFP positive cells) [6]: 91

Sequence: TGCATCTGAGCTTCTA (double strand) [B2M right 15 bp target]
- activity (% B2M alleles edited) [7]: 6.25

Sequence: TCTGAGCTTCTA (double strand) [B2M right 11 bp target]
- activity (% B2M alleles edited) [8]: 7.63

Sequence: CCCTAGAAAGATAATCATGCGTAAAATTGACGCATG (double strand) [Symmetrical ITR 1bpSNP]
- activity (% GFP positive cells) [6]: 91.3

Sequence: TCTTTGCATCTGAGCTTCTAA (double strand) [B2M right 20 bp target]
- activity (% B2M alleles edited) [9]: 4.65

Sequence: TGCATCTGAGCTTCTAA (double strand) [B2M right 16 bp target, 13 bp spacing]
- activity (% B2M alleles edited) [10]: 6

Sequence: TGAATCTGTGCTCT (double strand) [B2M left 13 bp target]
- activity (% B2M alleles edited) [11]: 6.55

Sequence: TCTGAGCTTCTAA (double strand) [B2M right 12 bp target]
- activity (% B2M alleles edited) [12]: 6.8

Sequence: TTGCATCTGAGCTTCTA (double strand) [B2M right 16 bp target, 14 bp spacing]
- activity (% B2M alleles edited) [13]: 6.39

Sequence: TCTGTGCTCT (double strand) [B2M left 9 bp target]
- activity (% B2M alleles edited) [14]: 5.38

Sequence: TGAATCTGTGCTCTG (double strand) [B2M left 14 bp target]
- activity (% B2M alleles edited) [15]: 7.63

Sequence: CCCTAGAAAGATAGTCTGCGTAAAATTGACGCATG / CCCTAGAAAGATAATCATATTGTGACGTACGTTAAAGATAATCATGCGTAAAATTGACGCATG [WT transposon ITRs (35 bp LE / 63 bp RE)]
- activity (% GFP positive cells) [6]: 98.8

Sequence: TGAGCTTCTAA (double strand) [B2M right 10 bp target]
- activity (% B2M alleles edited) [16]: 5.38

Sequence: TTGTCTCTTTT (double strand) [LINE1 R2.2 right target]
- activity (% mScarlet positive cells) [17]: 19.1
- activity (% mScarlet positive cells) [18]: 21.6
- activity (% mScarlet positive cells) [19]: 20.2
- activity (% mScarlet positive cells) [20]: 0.29

Sequence: TCTGTGCTCTG (double strand) [B2M left 10 bp target]
- activity (% B2M alleles edited) [21]: 6.02
